Measurements published in patent publication US20080268549A1, “THIOFLAVIN T METHOD FOR DETECTION OF AMYLOID POLYPEPTIDE FIBRIL AGGREGATION” (priority 2007, published 2008).
“Also recorded” adds a separate entry of the source.

Tests used:
β-amyloid peptide (1-40) = biological target: T1, β-amyloid peptide (1-40) (Homo sapiens, UniProt P05067); assay: Thioflavin T fluorescence assay of Aβ fibril aggregation; type: biochemical; conditions: FIG. 5
T1 construct: β-amyloid peptide (1-40) can be obtained from Biosource; purchased Biosource (Camarillo, Calif.)
T1 sequence (P05067 672-711 limits assumed): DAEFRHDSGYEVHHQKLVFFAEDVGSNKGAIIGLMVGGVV
Protocol: (1) Prepare a stock ThT solution (1 mg/ml; 3.14 mM) in distilled, deionized water, aliquot into small samples and store long term at −20° C. in the dark. Thaw frozen samples only once and discard the remainder. Add 1.6 μl of ThT solution to 1.0 ml of 50 mM Tris buffer, pH 7.4 to yield a final 5.0 μM ThT solution.
(2) β-amyloid peptide (1-40) can be obtained from Biosource (Camarillo, Calif.), CLN from ReGen Therapeutics Plc (London, UK) and Thioflavin T from Sigma (St. Louis, Mo.). Prepare a stock solution of β-amyloid (by dissolving in 10 mM NaOH (0.5 mg/ml) and stored at −70° C. until used. Aβ in base is stable for at least 3 weeks frozen. Add 5.0 μl (2.5 μg) of β-amyloid stock solution to 1.0 ml of ThT/Tris buffer solution. It is preferable to avoid any contact with metal when preparing a amyloid solution since metal can oxidize the peptide.
(3) Measure the fluorescence intensity of 1.0 ml of Aβ/ThT/Tris solution using an excitation wavelength of 440 nm and an emission wavelength of 482 nm. A control solution of Aβ/Tris solution, without ThT can be used as a control. The fluorescence intensity above the control is used as a measure of fibril content.
(4) If the assay is intended to measure the change in Aβ aggregation and used to quantitate the effect of test agents, prepare a second sample containing the drug or agent as in step 2. Preincubate the samples for the appropriate length of time (usually days to weeks) required to yield a change in fluorescence intensity.
Samples of Aβ in base were prepared as described in Example 1. ThT in Tris buffer was then added to the sample together with CLN at a concentration range of 2.5-10 nM and was preincubated for either 1 or 2 days and the fluorescence intensity measured following the above procedure. […] After a 2-day treatment with 10 nM CLN, approximately 50% of the Aβ fibrils are dissolved.

Aβ (1-40) = biological target: T2, Aβ (1-40) (Homo sapiens, UniProt P05067); assay: Circular dichroism spectra of Aβ secondary structure
T2 construct: β-amyloid peptide (1-40) can be obtained from Biosource; purchased Biosource (Camarillo, Calif.)
T2 sequence (P05067 672-711 limits assumed): as above
Protocol: CD is routinely used to monitor changes in secondary structure (Wang et al., 2005). In order to verify that CLN does indeed cause a shift in secondary structure, a CD spectra of Aβ treated with CLN and control were taken at 24 and 48 h. For these experiments, a 10 μM solution of Aβ (1-40) (first solubilized in base as in previous examples) was prepared in 50 mM Tris buffer, pH 7.4, with and without 50 nM CLN and ThT. Circular dichroism (CD) spectra of the Aβ (1-40) peptide solutions were recorded using a Jasco J-715 CD spectropolarimeter at 25° C. using a bandwidth of 1.0 nm, a sensitivity of 0.5 nm and a recording speed of 50 nm/min. The results were plotted as ellipticity (mdeg) versus wavelength (nm).

Row | Compound | Aβ fibrils dissolved (β-amyloid peptide (1-40); 10 nM CLN, 2-day treatment) | decrease in Aβ aggregation (ThT fluorescence), maximum (β-amyloid peptide (1-40); 10 nM CLN, at 2 days) [%] | effect on Aβ aggregation (ThT fluorescence) (β-amyloid peptide (1-40); CLN 2.5-10 nM, preincubated 1 or 2 days) | effect on secondary structure (conformation) of Aβ by CD spectra (Aβ (1-40); 10 μM Aβ (1-40), 50 nM CLN, 50 mM Tris pH 7.4, 24 and 48 h, FIG. 6A) | effect of ThT on conformation of CLN treated Aβ samples by CD spectra (Aβ (1-40); 10 μM Aβ (1-40) with 50 nM CLN and ThT, FIG. 6B)
1 | colostrinin [CLN] | approximately 50% | 40 | dose-dependent decrease | shift from β-sheet to α-helix; also recorded: shifted to a random-coil/α-helical rich conformation | –
2 | Cc1ccc2c(c1)sc(-c1ccc(N(C)C)cc1)[n+]2C.[Cl-] [ThT, Thioflavin T] | – | – | – | – | did not have an effect
